One molecule from patent publication US20210187071A1, “COMPOSITIONS COMPRISING MDA-7/IL-24 PROTEIN AND METHODS OF USE” (VIRGINIA COMMONWEALTH UNIVERSITY, priority 2017, published 2021) can be followed below.

One data set relates to PC3-ML cells. Kind of data set: MTT cell proliferation assay in PC3-ML cells. The format is cell-based. The following applies: PC3-ML cells treated with MDA-7/IL-24 protein. How it is done: Purification of Recombinant His-MDA-7 Protein: IM-PHFA cells were infected with Ad.5-His-mda-7 using a published protocol (24). Cell supernatant was mixed with Ni-NTA (a nickel-nitrilotriacetic) acid slurry to allow binding of MDA-7/IL-24 to the Ni-NTA beads. Twenty-four hours after incubation, the Ni-NTA beads were collected, washed, and the purified MDA-7/IL-24 protein was eluted in imidazole buffer. The protein was validated by western blotting using anti-MDA-7 antibody (Genhunter Corporation, Nashville, Tenn., USA). Biological activity was checked in PC3-ML cells by MTT assay (25).
MTT Cell Proliferation and Clonal Assays: Cell proliferation assays were done as described previously (25). Briefly, 2,000 cells were seeded in each well of a 96-well plate and allowed to attach overnight. Cells were treated with complete media in the presence or absence of different concentrations of MDA-7/IL-24 protein. At appropriate time points, cells were further incubated with MTT (3-(4, 5-di methyl thiazol-2-yl)-2, 5 diphenyl tetrazolium bromide) reagents. Finally, DMSO was applied to dissolve the blue salt and the OD was measured at 560 nm (25). For determining long-term effects, colony formation (cloning) assays were performed as described earlier (26). Briefly, 200 cells were plated and allowed to grow in the presence or absence of MDA-7/IL-24 for an additional 15 days. […]

For a further data set, the system named is PC3-ML^Akt. Kind of data set: Experimental bone metastasis model with PC3-ML cells over expressing constitutively active Akt. The conditions noted are these: MDA-7/IL-24 protein 5 mg/kg tail vein, 6 doses over three weeks. The format is in vivo, male athymic nude mice. How it is done: To evaluate the role of Akt in vivo, metastatic PC3-ML cells and PC3-ML cells over expressing constitutively active Akt (PC3-MI/**) (FIG. 5A) carrying firefly luciferase were injected into male athymic nude mice through the intracardiac route. Clone 1 was used for the in vivo studies, which was validated for expression of Akt downstream pathway gene expression by western blotting (FIG. 14). Proliferation, invasion, and migration of the tumor cells were monitored by IVIS® imaging. […] The Akt overexpressing PC3-ML cells were more metastatic than the control PC3-ML cells. […] These observations illustrate the significance of Akt in PC-mediated bone metastasis development, which can be partially abrogated by MDA-7/IL-24-treatment (FIG. 5B). […] To investigate osteoclastic differentiation in these animals, bone marrow cells were isolated after completion of the study. Osteoclast differentiation was induced as described above. […] Osteoclast differentiation assays further illustrated the importance of Akt in PC-mediated bone metastasis (FIGS. 5D and 5E). A schematic representation of the proposed role of MDA-7/IL-24 protein in PC-mediated bone metastasis through modulation of the bone microenvironment is presented in FIG. 6. […]

Data set [1] deals with immortalized normal primary human prostate epithelial cells (RWPE-1). In words: Colony formation (clonal) assay in RWPE-1 cells. The format is cell-based. The conditions noted are these: 200 cells plated, colonies counted 2 weeks after treatment. How it is done: MTT Cell Proliferation and Clonal Assays: Cell proliferation assays were done as described previously (25). Briefly, 2,000 cells were seeded in each well of a 96-well plate and allowed to attach overnight. Cells were treated with complete media in the presence or absence of different concentrations of MDA-7/IL-24 protein. At appropriate time points, cells were further incubated with MTT (3-(4, 5-di methyl thiazol-2-yl)-2, 5 diphenyl tetrazolium bromide) reagents. Finally, DMSO was applied to dissolve the blue salt and the OD was measured at 560 nm (25). For determining long-term effects, colony formation (cloning) assays were performed as described earlier (26). Briefly, 200 cells were plated and allowed to grow in the presence or absence of MDA-7/IL-24 for an additional 15 days. Culture media was replaced with fresh media containing MDA-7/IL-24 protein once a week, two times in total.

The subject of data set [2] is bone marrow cells. In words: Osteoclast differentiation of bone marrow from animals injected with elevated Akt-stable expression cells. The format is in vivo, mice. The conditions noted are these: MDA-7/IL-24 protein 5 mg/kg, 6 doses; differentiation induced ex vivo. The protocol:
(§1) Osteoclast Formation Assays: Bone marrow cells were induced for osteoclast differentiation using previously described protocols (28). Briefly, bone marrow cells were cultured in minimal essential medium (α-MEM) with 10% fetal bovine serum with MCSF (10 ng/ml) for 24 hrs. They were subsequently treated with RANKL (100 ng/ml) for 5 days. Cultured cells were fixed and stained for TRAP (Tartarate-resistant acid phosphatase). TRAP staining was performed following the specific protocol provided with the kit (Sigma-Aldrich, Inc. St. Louis, Mo., USA). Multinucleated cells, considered as differentiated osteoclasts, were counted manually under bright field microscope. TRACP enzymatic assays were done as per the manufacturer's instructions (R & D, Minneapolis, Minn., USA).
To evaluate the role of Akt in vivo, metastatic PC3-ML cells and PC3-ML cells over expressing constitutively active Akt (PC3-MI/**) (FIG. 5A) carrying firefly luciferase were injected into male athymic nude mice through the intracardiac route. Clone 1 was used for the in vivo studies, which was validated for expression of Akt downstream pathway gene expression by western blotting (FIG. 14). Proliferation, invasion, and migration of the tumor cells were monitored by IVIS® imaging. […] The Akt overexpressing PC3-ML cells were more metastatic than the control PC3-ML cells. […]

For data set [3], the system named is bone marrow cells. In words: In vitro RANKL-induced osteoclast differentiation of primary bone marrow cells. The format is cell-based, athymic nude mice. The conditions noted are these: RANKL induction 5 days, 10 μg/mL MDA-7/IL-24 protein. How it is done: as §1
To investigate the effect of MDA-7/IL-24 on osteoclast differentiation, bone marrow cells from athymic nude mice were isolated and induced to differentiate with RANKL in the presence or absence of MDA-7/IL-24 protein. Five days after induction with RANKL, osteoclast differentiation was measured by counting multinucleated cells. Cells positively stained for TRAP and multinucleated cells were quantified under a light microscope (FIG. 9A). […] To provide molecular insights into this inhibitory effect, we used a mouse macrophage cell line RAW 264.7, which can be induced to differentiate into osteoclasts when incubated with RANKL (32). Using RAW 264.7 cells, different genetic markers associated with osteoclastic differentiation were monitored (33). RAW 264.7 cells were treated with RANKL or MDA-7/IL-24 alone and in combination. RNA was isolated after 5 days of treatment and real time PCR quantified expression of TRAP, Cathepsin K (CTSK), and Calcitonin Receptor (CTR) genes. RANKL induced the expression of TRAP, CTSK and CTR gene expression. […] MTT assays were performed to determine if MDA-7/IL-24 caused any growth suppression in this cell line. Proliferation of RAW 264.7 was not affected by MDA-7/IL-24, further illustrating the tumor-specificity of this cytokine (FIG. 10B). DU-145 (PC) cells were used as a positive control (FIG. 10C).

For data set [4], the system named is primary bone marrow cells. In words: Live-dead cell assay on primary bone marrow cells. The following applies: treated in vitro at different doses. Format: cell-based, mouse. How it is done: Live-Dead Cell Assay: Live and dead cells were observed by confocal laser microscopy (Zeiss, Germany) after staining with live/dead staining reagent (Invitrogen, Carlsbad, Calif., USA) as per the manufacturer's instructions. The images were analyzed by Zeiss software.
BLI imaging followed development of metastatic lesions in bone.

The test system of data set [5] is bone marrow cells. In words: Osteoclast differentiation of bone marrow cells isolated from treated PC3-ML tumor bearing animals (TRAP staining, TRACP assay). The format is in vivo, mice. The conditions noted are these: MDA-7/IL-24 protein 5 mg/kg, 6 doses; differentiation induced ex vivo. The protocol: as §1
This was quantified by counting the number of osteoclasts (FIG. 2D) and also measuring TRACP osteoclastic enzymatic activity (FIG. 2E). These initial results indicated a potential function of MDA-7/IL-24 in regulating osteoclast differentiation.
Suppression of osteoclast differentiation was also evaluated using an in vivo metastatic model (FIG. 4C). Bone marrow cells were isolated after sacrifice of mice and osteoclast differentiation was induced. […] This was evident by counting osteoclasts (FIG. 4C) and also by measuring TRACP osteoclastic enzymatic activity (FIG. 4D).

“Also recorded” adds a separate entry of the source.

B1: MDA-7/IL-24 protein: Recombinant His-tagged MDA-7/IL-24 protein purified on Ni-NTA from supernatant of IM-PHFA cells infected with Ad.5-His-mda-7 (protein)
chain: QEFHFGPCQVKGVVPQKLWEAFWAVKDTMQAQDNITSARLLQQEVLQNVSDAESCYLVHTLLEFYLKTVFKNYHNRTVEVRTLKSFSTLANNFVLIVSQLQPSQENEMFSIRDSAHRRFLLFRRAFKQLDVEAALTKALGEVDILLTWMQKFYKL
For the molecule B1, the “Cell proliferation (MTT assay)” value is reported as “significant inhibition in cell proliferation” with PC3-ML cells and “significantly impaired” with PC3-ML cells (listed as MDA-7/IL-24). For the same molecule, the “bone metastasis by PC3-ML^Akt cells” value was “diminished the inhibitory effects” in the data set on PC3-ML^Akt and “inhibited metastasis” with PC3-ML^Akt (listed as MDA-7/IL-24). Moreover, the “proliferation capacity of RWPE-1 (colony formation)” value in data set [1] is “without affecting the proliferation capacity”. Besides, the “osteoclastic activity of bone marrow from animals with Akt overexpressing cells” value with bone marrow cells [2] is listed as “decreased”. In addition, the “number of osteoclasts (osteoclast differentiation)” value in the data set with bone marrow cells [3] (listed as His-MDA-7) is given as “decreased significantly”; in the data set on bone marrow cells [3] (listed as MDA-7/IL-24) it was “significantly reduced; also recorded: reduced osteoclast differentiation”. Also, the “osteoclast activity (TRACP enzymatic activity)” value with bone marrow cells [3] (listed as His-MDA-7) is reported as “significantly less”; with bone marrow cells [3] (listed as MDA-7/IL-24), “significantly reduced”. Also, the “toxicity in primary bone marrow cells” value is listed as “No apparent toxicity” in data set [4] (listed as His-MDA-7) and “no effect” in data set [4] (listed as MDA-7/IL-24). In addition, the “number of osteoclasts from bone marrow of treated animals” value with bone marrow cells [5] is on record as “significantly fewer osteoclasts”. Moreover, in the data set on bone marrow cells [5], the “osteoclastic activity of bone marrow from treated animals” value is recorded as “less osteoclastic activity”.
